In PMC2995052 (Nucleic Acids Research, 2010):

Target: the molecule itself
Test: SEC

B1: P2 C repressor (immunity repressor of temperate Escherichia coli phage P2) (natural protein, bacteriophage P2, UniProt P04132 1-99, looked up)
chain: MSNTISEKIVLMRKSEYLSRQQLADLTGVPYGTLSYYESGRSTPPTDVMMNILQTPQFTKYTLWFMTNQIAPEFGQIAPALAHFGQNETTSPHSGQKTG
stoichiometry N: 2
